According to paper PMC6324938 (Developmental cell, 2018):

Biological target: T1, Gdi1 (GDP dissociation inhibitor) (UniProt P39958 1-451)
T1 sequence (looked up): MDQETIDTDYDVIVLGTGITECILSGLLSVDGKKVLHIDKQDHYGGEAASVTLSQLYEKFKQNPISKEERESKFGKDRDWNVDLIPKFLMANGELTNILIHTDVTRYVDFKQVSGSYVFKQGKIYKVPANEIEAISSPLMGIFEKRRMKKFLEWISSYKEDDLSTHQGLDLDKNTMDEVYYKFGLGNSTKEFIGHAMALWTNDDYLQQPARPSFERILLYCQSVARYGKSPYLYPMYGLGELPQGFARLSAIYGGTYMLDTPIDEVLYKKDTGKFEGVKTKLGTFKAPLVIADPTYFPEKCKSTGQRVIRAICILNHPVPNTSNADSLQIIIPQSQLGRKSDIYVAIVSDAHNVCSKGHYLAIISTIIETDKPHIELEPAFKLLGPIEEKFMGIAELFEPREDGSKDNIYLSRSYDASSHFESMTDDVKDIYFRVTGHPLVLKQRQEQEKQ
Assay: SEC

B1: prenylated Ypt31 (mantGDP-labeled, of the Rab/GDI substrate) (natural protein, S. cerevisiae, UniProt P38555 1-223, looked up)
chain: MSSEDYGYDYDLLFKIVLIGDSGVGKSNLLSRFTKNEFNMDSKSTIGVEFATRTLEIDGKRIKAQIWDTAGQERYRAITSAYYRGAVGALIVYDISKSSSYENCNHWLSELRENADDNVAVGLIGNKSDLAHLRAVPTEESKTFAQENQLLFTETSALNSENVDKAFEELINTIYQKVSKHQMDLGDSSANGNANGASAPNGPTISLTPTPNENKKANGNNCC
modifications: prenylated (geranylgeranyl) at the C-terminus; loaded with mantGDP
  binding result: binds

B2: prenylated Ypt1 (mantGDP-labeled, of the Rab/GDI substrate) (natural protein)
chain: not shown
modifications: prenylated (geranylgeranyl) at the C-terminus; loaded with mantGDP
  binding result: binds
